Patent US20120100074A1 (Teva, published 2012)
One block for each binder: values may come before it.

Experiments:
[1] = molecular target: T1, LIGHT expressed on the cell surface (LIGHT transfected cells; activated T-cells) (UniProt O43557 1-240, limits assumed); assay: flow cytometry on PMA/ionomycin activated Th1, Th17 and Th2 cells, biotin labeled antibody, streptavidin-PE
T1 construct: whole, on cells
Experimental: FIG. 10B illustrates binding of humanized 5E10 antibody to Th1, Th17 and Th2 activated T-cells compared to controls. Polarized T-cells were activated with PMA/Ionomycin for 24 hr. Biotin labeled LIGHT antibody or control antibody was incubated with cells for 40 minutes at room temperature. After washing twice with PBS, the antibody binding to LIGHT expressed on activated T-cells was determined by flow cytometry using strepavidin conjugated to PE. Dotted lines on figure indicates humanized LIGHT antibody binding. Solid fill indicates control antibody binding.
This example describes an assay protocol to determine LIGHT antibody binding to LIGHT expressed on surface of activated T-cells by Flow cytometry. Polarized Th1, Th2 and Th17 cells were activated with 50 ng/mL PMA and 0.5 μg/mL lonomycin overnight at 37° C. One million activated T-cells were transferred to 5 mL FACS tubes and centrifuged at 1200 rpm for 5 minutes. The cellet pellet was resuspended in FACS staining buffer and incubated with anti-LIGHT or control antibodies at room temperature for 40 minutes. After washing twice with 2 mL PBS, the cells were incubated with PE-conjugated secondary reagents for 1 hour. The cells were washed 3 times with 2 mL PBS and resuspended in 0.5 mL PBS and analyzed by flow cytometry.

[2] = molecular target: T2, LIGHT (TNFSF14), recombinant soluble protein (human, UniProt O43557 83-240, limits assumed); assay: competition ELISA: inhibition of LIGHT-biotin binding to DcR3-Fc captured by Protein A
T2 construct: The immunogen was the extracellular domain fragment (Leu Ile Glu to Phe Met Val of AF036581); also called TL5; LIGHT/TL5

[3] = molecular target: T2, LIGHT (TNFSF14), recombinant soluble …; assay: competition ELISA: inhibition of LIGHT-biotin binding to HVEM-Fc captured by Protein A
[4] = molecular target: T2, LIGHT (TNFSF14), recombinant soluble …; assay: competition ELISA: inhibition of LIGHT-biotin binding to LTbR-Fc captured by Protein A
[5] = molecular target: T1, LIGHT expressed on the cell surface …; assay: flow cytometry on LIGHT transfected cells against vector control cells
[6] = molecular target: T2, LIGHT (TNFSF14), recombinant soluble …; assay: BiaCore (SPR)
[7] = molecular target: T2, LIGHT (TNFSF14), recombinant soluble …; assay: direct binding ELISA on LIGHT

T2 sequence (O43557 83-240 limits assumed): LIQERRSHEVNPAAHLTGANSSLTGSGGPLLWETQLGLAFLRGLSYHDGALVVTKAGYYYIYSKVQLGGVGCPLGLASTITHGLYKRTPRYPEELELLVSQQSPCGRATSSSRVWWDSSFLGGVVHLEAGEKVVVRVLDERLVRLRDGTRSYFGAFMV
T1 sequence (O43557 whole entry): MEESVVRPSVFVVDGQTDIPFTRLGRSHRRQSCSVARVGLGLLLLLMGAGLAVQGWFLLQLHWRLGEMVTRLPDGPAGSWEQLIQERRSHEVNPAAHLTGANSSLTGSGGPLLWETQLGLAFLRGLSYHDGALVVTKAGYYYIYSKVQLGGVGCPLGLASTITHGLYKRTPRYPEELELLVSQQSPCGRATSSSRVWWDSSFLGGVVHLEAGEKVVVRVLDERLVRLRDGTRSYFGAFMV

binding result [1]: binds
B1: humanized 5E10 antibody (antibody, V domains shown)
VH: QVQLVQSGAEVKKPGASVKVSCKASGYTFTSYYIHWVRQAPGQRLEWMGWIFPGSDITKYNEKFKGRVTITRDTSASTAYMELSSLRSEDTAVYYCAREDYGISTYSAMDFWGQGTLVTVSS
VL: DIQLTQSPSFLSASVGDRVTITCKASQDVGTAVAWYQQKPGKAPKLLIYWASTRHTGVPSRFSGSGSGTEFTLTISSLQPEDFATYYCQQYSSYPLTFGQGTKVEIKR
notes: also called h5E10

IC50 [2]: 0.14 nM | IC50 [3]: 0.08 nM | IC50 [4]: 0.0012 nM | MFC ratio (mean fluorescence on LIGHT transfected cells to vector control cells) [5]: 13.1 ratio | Kd [6]: 0.045 nM | EC50 [7]: 0.16 nM
B2: murine anti-LIGHT monoclonal antibody 10D11 (antibody, V domains shown)
VH: EIQLQQSGPDLVKPGASVKVSCKASGYSFTDYYIYWVRQSHGKSLEWIGYIDPYNGGTKYNQKFKDTASLTVDKSSSTAFMHLNSLTSEDSAVYYCARTSGSSWFPYWGQGTLVTVSA
VL: DIVLTQSPATLSVTPGDSVSLSCRASQSISNNLHWYQQKSHESPRLLIKYTYQSISGIPSRFSGSGSGTDFTLTINSVETEDFGMYFCQQSNRWPLTFGAGTKLELKR
notes: Mouse hybridoma monoclonal antibody; also called m10D11; mD10D11
